Results reported in PMC10987540, “Biogenesis of Rab14-positive endosome buds at Golgi–endosome contacts by the RhoBTB3–SHIP164–Vps26B complex” (Cell Discovery, 2024).

Target: T1, GST-SHIP164-CT (residues 1063–1364) (UniProt A0JNW5 1063-1364)
T1 construct: SHIP164, fragment of the C-terminal region, residues 1063-1364; also called purified SHIP164-CT fragment (residues 1063–1364); source: TSsetta (DE3) cells, purified (GST-tag resin)
Assay: pull-down; GST pull-down: purified GST protein on GST tag resin, His fusion protein added, 12 h at 4 °C, HNM buffer (20 mM HEPES pH 7.4, 100 mM NaCl, 5 mM MgCl2, 1 mM DTT, 0.2% NP-40); blot with anti-GST or His antibodies
Conditions: both partners purified

T1 sequence (A0JNW5 1063-1364): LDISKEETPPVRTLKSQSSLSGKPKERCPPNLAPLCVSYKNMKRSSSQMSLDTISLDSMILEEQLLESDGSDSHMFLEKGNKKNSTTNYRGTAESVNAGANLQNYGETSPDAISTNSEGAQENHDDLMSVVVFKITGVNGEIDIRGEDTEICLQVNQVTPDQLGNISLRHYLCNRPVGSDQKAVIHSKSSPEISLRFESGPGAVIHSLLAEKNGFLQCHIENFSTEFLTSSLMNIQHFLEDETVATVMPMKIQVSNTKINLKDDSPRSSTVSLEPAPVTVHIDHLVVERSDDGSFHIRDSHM

binding result: binds
B1: His-Vps26B-NT (residues 1–160) (domain or fragment, UniProt Q4G0F5 1-160, looked up)
chain: MSFFGFGQSVEVEILLNDAESRKRAEHKTEDGKKEKYFLFYDGETVSGKVSLALKNPNKRLEHQGIKIEFIGQIELYYDRGNHHEFVSLVKDLARPGEITQSQAFDFEFTHVEKPYESYTGQNVKLRYFLRATISRRLNDVVKEMDIVVHTLSTYPELNS
notes: Vps26B N-terminal region, residues 1-160; also called His-Vps26B NT region; purified Vps26B-NT fragment; source: TSsetta (DE3) cells, purified (Ni-NTA resin)
